Results on two molecules are retold here after paper PMC4005822, “Biochemical and functional characterization of Plasmodium falciparum GTP cyclohydrolase I” (Malaria Journal, 2014).

The target of data set [1] is T1, Plasmodium falciparum Δ1-195 GCH1 (core GCH1) (Plasmodium falciparum, UniProt Q8I5H7).
T1 construct: gene PF3D7_1224000; C-terminal core domain, residues 196-389 (N-terminal 1-195 deleted); pET45b(+), E. coli BL21(DE3)RIL, Ni-sepharose purified (His tag); homodecamer
Put plainly: fluorescence of iodine-oxidised neopterin product; initial velocity at various GTP concentrations. Type of data set: biochemical. Conditions: GTP as substrate; called competitive by the authors.

Data set [2] relates to Nc1nc2c(ncn2[C@@H]2O[C@H](COP(=O)(O)OP(=O)(O)OP(=O)(O)O)[C@@H](O)[C@H]2O)c(=O)[nH]1. As to the kind of experiment: fluorescence of iodine-oxidised neopterin product. The format is biochemical, Plasmodium falciparum. Conditions: 50 mM Tris–HCl pH 7.8, 100 mM KCl, 20% glycerol, 37°C.

T1 sequence (Q8I5H7 entry or part of it, stated change not applied): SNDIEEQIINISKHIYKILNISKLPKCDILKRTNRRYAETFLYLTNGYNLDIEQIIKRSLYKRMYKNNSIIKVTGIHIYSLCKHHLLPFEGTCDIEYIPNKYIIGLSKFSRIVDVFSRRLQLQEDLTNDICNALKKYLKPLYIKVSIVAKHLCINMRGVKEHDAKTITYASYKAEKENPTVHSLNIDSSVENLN

For `Nc1nc2c([nH]c(=O)n2[C@@H]2O[C@H](COP(=O)(O)OP(=O)(O)OP(=O)(O)O)[C@@H](O)[C@H]2O)c(=O)[nH]1` [8-oxo-GTP], the “fluorescence of iodine-oxidised neopterin product; initial velocity at various G” value in data set [1] is 8-oxo-GTP could inhibit the activity of P. falciparum GCH1 with reduced fluorescent signal.

In the case of “Plasmodium falciparum Δ1-195 GCH1 (core GCH1) (Plasmodium falciparum 3D7)”, in data set [2], the Michaelis constant (Km) came to 12.06 µM and the catalytic constant (kcat) is 0.039 s⁻¹.

By Km is commonly meant the concentration of substrate that gives half-maximal velocity. As usually defined, the kcat is the number of substrate molecules converted per active site and unit of time at saturation.
